Results reported in the supplement of paper PMC5998384.

Legend:
[1] = tested on: HeLa Kyoto; experiment: solubility in G1/S (NP-40 vs SDS abundance) (log2 ratio); higher = more soluble; details: cell cycle stage: G1/S
[2] = tested on: HeLa Kyoto; experiment: melting temperature (median over replicates), in situ; higher = more thermally stable
[3] = tested on: HeLa Kyoto; experiment: thermal stability score vs G1/S (z-score of summed log2 fold changes over temperatures); higher = more thermally stable than in G1/S
[4] = tested on: HeLa Kyoto; experiment: solubility change mitosis vs G1/S (difference of NP-40 vs SDS log2 ratios) (log2 ratio difference); higher = more soluble in mitosis
[5] = cell cycle stage: early G1 (4.5 h after nocodazole release)
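For melting temperature (median over replicates), in situ in this document: HeLa Kyoto cells synchronized by double thymidine or nocodazole block, proteins quantified by TMT10plex mass spectrometry, three independent biological replicates.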
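For solubility change mitosis vs G1/S (difference of NP-40 vs SDS log2 ratios) in this document: synchronized HeLa Kyoto cells (double thymidine block for G1/S, nocodazole release for mitosis), protein amounts in NP-40 versus SDS lysates quantified by mass spectrometry, three biological replicates.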
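For solubility in G1/S (NP-40 vs SDS abundance) in this document: HeLa Kyoto cells arrested at G1/S by double thymidine block, proteins quantified by TMT10plex mass spectrometry in mild NP-40 versus SDS extracts, three biological replicates.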
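For thermal stability score vs G1/S (z-score of summed log2 fold changes over temperatures) in this document: synchronized HeLa Kyoto cells, proteins quantified by TMT10plex mass spectrometry, three biological replicates, mitosis taken 0.5 h after nocodazole release, G1/S directly after double thymidine block.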

Row | Sequence | solubility in G1/S (log2) [1] | melting temperature ([2]; cell cycle stage: G1/S) [°C] | melting temperature ([2]; cell cycle stage: mitosis) [°C] | thermal stability score [3, 5] | thermal stability score ([3]; cell cycle stage: mitosis) | solubility change mitosis (log2) [4]
1 | MGSLFRSETMCLAQLFLQSGTAYECLSALGEKGLVQFRDLNQNVSSFQRKFVGEVKRCEELERILVYLVQEINRADIPLPEGEASPPAPPLKQVLEMQEQLQKLEVELREVTKNKEKLRKNLLELIEYTHMLRVTKTFVKRNVEFEPTYEEFPSLESDSLLDYSCMQRLGAKLGFVSGLINQGKVEAFEKMLWRVCKGYTIVSYAELDESLEDPETGEVIKWYVFLISFWGEQIGHKVKKICDCYHCHVYPYPNTAEERREIQEGLNTRIQDLYTVLHKTEDYLRQVLCKAAESVYSRVIQVKKMKAIYHMLNMCSFDVTNKCLIAEVWCPEADLQDLRRALEEGSRESGATIPSFMNIIPTKETPPTRIRTNKFTEGFQNIVDAYGVGSYREVNPALFTIITFPFLFAVMFGDFGHGFVMFLFALLLVLNENHPRLNQSQEIMRMFFNGRYILLLMGLFSVYTGLIYNDCFSKSVNLFGSGWNVSAMYSSSHPPAEHKKMVLWNDSVVRHNSILQLDPSIPGVFRGPYPLGIDPIWNLATNRLTFLNSFKMKMSVILGIIHMTFGVILGIFNHLHFRKKFNIYLVSIPELLFMLCIFGYLIFMIFYKWLVFSAETSRVAPSILIEFINMFLFPASKTSGLYTGQEYVQRVLLVVTALSVPVLFLGKPLFLLWLHNGRSCFGVNRSGYTLIRKDSEEEVSLLGSQDIEEGNHQVEDGCREMACEEFNFGEILMTQVIHSIEYCLGCISNTASYLRLWALSLAHAQLSDVLWAMLMRVGLRVDTTYGVLLLLPVIALFAVLTIFILLIMEGLSAFLHAIRLHWVEFQNKFYVGAGTKFVPFSFSLLSSKFNNDDSVA [ATP6V0A2] | -0.303 | 55.8 | 56.5 | -2.85 | -3.91 | -0.0408
2 | MSSKGSVVLAYSGGLDTSCILVWLKEQGYDVIAYLANIGQKEDFEEARKKALKLGAKKVFIEDVSREFVEEFIWPAIQSSALYEDRYLLGTSLARPCIARKQVEIAQREGAKYVSHGATGKGNDQVRFELSCYSLAPQIKVIAPWRMPEFYNRFKGRNDLMEYAKQHGIPIPVTPKNPWSMDENLMHISYEAGILENPKNQAPPGLYTKTQDPAKAPNTPDILEIEFKKGVPVKVTNVKDGTTHQTSLELFMYLNEVAGKHGVGRIDIVENRFIGMKSRGIYETPAGTILYHAHLDIEAFTMDREVRKIKQGLGLKFAELVYTGFWHSPECEFVRHCIAKSQERVEGKVQVSVLKGQVYILGRESPLSLYNEELVSMNVQGDYEPTDATGFININSLRLKEYHRLQSKVTAK [ASS1] | 0.145 | 54.3 | 54.1 | -0.511 | -0.833 | -0.0958
3 | MVLLKEYRVILPVSVDEYQVGQLYSVAEASKNETGGGEGVEVLVNEPYEKDGEKGQYTHKIYHLQSKVPTFVRMLAPEGALNIHEKAWNAYPYCRTVITNEYMKEDFLIKIETWHKPDLGTQENVHKLEPEAWKHVEAVYIDIADRSQVLSKDYKAEEDPAKFKSIKTGRGPLGPNWKQELVNQKDCPYMCAYKLVTVKFKWWGLQNKVENFIHKQERRLFTNFHRQLFCWLDKWVDLTMDDIRRMEEETKRQLDEMRQKDPVKGMTADD [PITPNA] | 0.15 | 54.9 | 55.5 | -1.26 | -1.48 | -0.0595
4 | MSTADALDDENTFKILVATDIHLGFMEKDAVRGNDTFVTLDEILRLAQENEVDFILLGGDLFHENKPSRKTLHTCLELLRKYCMGDRPVQFEILSDQSVNFGFSKFPWVNYQDGNLNISIPVFSIHGNHDDPTGADALCALDILSCAGFVNHFGRSMSVEKIDISPVLLQKGSTKIALYGLGSIPDERLYRMFVNKKVTMLRPKEDENSWFNLFVIHQNRSKHGSTNFIPEQFLDDFIDLVIWGHEHECKIAPTKNEQQLFYISQPGSSVVTSLSPGEAVKKHVGLLRIKGRKMNMHKIPLHTVRQFFMEDIVLANHPDIFNPDNPKVTQAIQSFCLEKIEEMLENAERERLGNSHQPEKPLVRLRVDYSGGFEPFSVLRFSQKFVDRVANPKDIIHFFRHREQKEKTGEEINFGKLITKPSEGTTLRVEDLVKQYFQTAEKNVQLSLLTERGMGEAVQEFVDKEEKDAIEELVKYQLEKTQRFLKERHIDALEDKIDEEVRRFRETRQKNTNEEDDEVREAMTRARALRSQSEESASAFSADDLMSIDLAEQMANDSDDSISAATNKGRGRGRGRRGGRGQNSASRGGSQRGRADTGLETSTRSRNSKTAVSASRNMSIIDAFKSTRQQPSRNVTTKNYSEVIEVDESDVEEDIFPTTSKTDQRWSSTSSSKIMSQSQVSKGVDFESSEDDDDDPFMNTSSLRRNRR [MRE11A] | -0.0431 | 51.6 | 51.2 | -0.294 | -0.527 | -0.164
